In publication PMC3596245:
Where two headings read alike, the source gives them in different places.

What was measured:
[1] = target: NMMIIA rod filaments (residues 1338-1960) (human) (UniProt P35579); experiment: co-sedimentation
[2] = target: NMMIIA rod filaments (residues 1338-1960) (human) (UniProt P35579); experiment: co-sedimentation; remark: listed apart in the source

Kd [1] [nM] | Kd [2] [nM] | Substance
1310 | 212 | GST-gelsolin C-terminal half (G4-G6) (domain or fragment)
495 | 220 | GST-gelsolin N-terminal half (G1-G3) (domain or fragment)
423 | 158 | GST-gelsolin full-length (G1-G6) (from UniProt P06396 28-782) (natural protein)
